According to publication PMC4329188, “Expression, purification, crystallization, and preliminary X-ray crystallographic studies of the human adiponectin receptors, AdipoR1 and AdipoR2” (Journal of Structural and Functional Genomics, 2015):

Target: T1, purified AdipoR1Δ88 (human adiponectin receptor 1, residues 89–375), as used for SPR and antibody screening (human, UniProt Q96A54 89-375)
T1 construct: adiponectin receptor 1 (AdipoR1), human, residues 89-375 (N-terminally truncated mutant Δ88); Same construct as m1; SDS-denatured in the dot blot; source: Trichoplusia ni (High Five) insect cells, baculovirus; purified; reconstituted into liposomes for SPR and ELISA
T1 sequence (looked up): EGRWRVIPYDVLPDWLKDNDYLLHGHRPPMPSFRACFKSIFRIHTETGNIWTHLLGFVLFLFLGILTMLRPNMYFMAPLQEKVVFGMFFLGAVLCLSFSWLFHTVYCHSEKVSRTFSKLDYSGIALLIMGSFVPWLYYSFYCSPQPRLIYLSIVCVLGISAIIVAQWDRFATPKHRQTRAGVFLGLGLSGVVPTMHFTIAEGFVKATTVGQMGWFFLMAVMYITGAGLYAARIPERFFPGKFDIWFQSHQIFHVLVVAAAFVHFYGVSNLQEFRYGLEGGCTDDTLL
Experiment: SPR; purified AdipoR1Δ88 reconstituted into liposomes (egg yolk PC, biotinyl-PE) and immobilised on a sensor chip SA; osmotin 0.5–8 μM as analyte; Biacore T200
Settings: both partners purified

B1: osmotin (ligand)
chain: ATIEVRNNCPYTVWAASTPIGGGRRLDRGQTWVINAPRGTKMARVWGRTNCNFNAAGRGTCQTGDCGGVLQCTGWGKPPNTLAEYALDQFSGLDFWDISLVDGFNIPMTFAPTNPSGGKCHAIHCTANINGECPRELRVPGGCNNPCTTFGGQQYCCTQGPCGPTFFSKFFKQRCPDAYSYPQDDPTSTFTCPGGSTNYRVIFCPNGQAHPNFPLEMPGSDEVAK
Binder B1 has a Kd of 700 nM.
